Among the data in paper doi:10.1101/2021.06.09.447721 are reduction of MAD2 binding against wild type GST-NET-Ct values, retold here.

In the assay the target is GST-NET-Ct^ΔMIM (human) (UniProt P23975). As to the kind of experiment: pull-down.

“MAD2 (endogenous) (from UniProt Q13257 1-205) (natural protein)” returned a reduction of MAD2 binding against wild type GST-NET-Ct of 70%.
